Holding throughout (test): SEC; purified, untagged mature regions of the proteins analysed by size exclusion chromatography; SDS-PAGE with and without β-mercaptoethanol was run alongside
Data set [1] addresses Bacillus amyloliquefaciens BslA(42-181) (Bacillus amyloliquefaciens FZB42).
The target of data set [2] is Bacillus licheniformis BslA(40-179) (Bacillus licheniformis DSM13).
For data set [3], the target named is Bacillus pumilus BslA(37-177) (Bacillus pumilus SAFR-032).
Data set [4] concerns the molecule itself.

Consider “Bacillus amyloliquefaciens BslA(42-181) (domain or fragment)”, for which the stoichiometry N (commonly a count of units in the complex or per binding partner) in data set [1] stood at 2.

In turn, “Bacillus licheniformis BslA(40-179) (domain or fragment)” gave a stoichiometry N in data set [2] of 2.

On to “Bacillus pumilus BslA(37-177) (domain or fragment)”, for which the stoichiometry N in data set [3] turned out to be 2.

B1: Bacillus subtilis BslA(42-181) (domain or fragment, B. subtilis, UniProt P71014 42-181, looked up)
chain: MRTQSTASLFATITGASKTEWSFSDIELTYRPNTLLSLGVMEFTLPSGFTANTKDTLNGNALRTTQILNNGKTVRVPLALDLLGAGEFKLKLNNKTLPAAGTYTFRAENKSLSIGNKFYAEASIDVAKRSTPPTQPCGCN
notes: BslA of Bacillus subtilis, truncated protein BslA 42-181 (mature region), on which the previous analyses were based; also called Bs-BslA; source: E. coli BL21 (DE3) pLysS, purified (Glutathione Sepharose, TEV cleavage, SEC)
For B1, the “stoichiometry N” value in data set [4] is 2.

(Values after paper PMC5532214, “Natural variations in the biofilm-associated protein BslA from the genus Bacillus” (Scientific Reports, 2017).)
